Values quoted from earlier work in article PMC5800599.

Molecular target: FcγRIIIa/CD16A (Homo sapiens) (UniProt P08637)
Sequence (P08637 17-254): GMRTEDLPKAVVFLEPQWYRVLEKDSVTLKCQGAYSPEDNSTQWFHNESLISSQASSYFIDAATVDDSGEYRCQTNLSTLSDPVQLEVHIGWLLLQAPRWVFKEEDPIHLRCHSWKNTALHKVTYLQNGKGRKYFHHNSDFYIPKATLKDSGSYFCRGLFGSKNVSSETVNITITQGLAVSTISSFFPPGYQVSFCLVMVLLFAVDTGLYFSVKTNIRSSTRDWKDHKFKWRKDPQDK

Substance: hIgG1 Fc Fc (from UniProt P01857)
- Kd: 0.55 µM
